Blank lines part the entries; values can stand above or below the binder they belong to.
Experiments:
[1] = biological target: T1, monkey GPC3 on HEK293T-monkey GPC3 cells (monkey); experiment: FACS on HEK293T-monkey GPC3 cells;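 note: flow cytometry binding of test antibodies to the cells, read as mean fluorescence intensity, with half-maximal concentration taken from fitted curves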
T1 construct: whole, on cells
Protocol: The desired cells were expanded to a logarithmic growth phase in a T-75 cell culture flask, the medium was removed by pipetting, and the cells were washed twice with a PBS buffer, and digested with trypsin. Then a complete medium was added to stop the digestion, and the cells were blown into a single cell suspension. After counting, the cells were centrifuged, and the cell pellet was resuspended with an FACS buffer (PBS+2% fetal bovine serum) to 2×10⁶ cells/mL. The cell resuspension solution was added to a 96-well FACS reaction plate at 50 μl/well, and a chimeric antibody sample to be tested was added at 50 μl/well for incubation at 4° C. for 1 h. […] After the plate was centrifuged and washed 3 times with a PBS buffer, 100 μl of the resulting solution was assayed and analyzed by FACS (FACS Canto™, purchased from BD Biosciences). Data analysis was performed by software (FlowJo) to obtain the mean fluorescence intensity (MFI) of the cells. Then, analysis was performed by software (GraphPad Prism8), data were fitted, and EC₅₀ values were calculated.

monkey GPC3-His protein [2] = biological target: T2, monkey GPC3-His protein (monkey); experiment: SPR, antibody captured on Protein A chip, monkey GPC3-His analyte;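 note: run at 25 °C with 240 s association and up to 600 s dissociation, double-referenced, kinetics fitted to a 1:1 Langmuir binding model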
T2 construct: Bought recombinant protein; also called monkey GPC3 protein

human GPC3-His protein = biological target: T3, human GPC3-His protein (human, UniProt P51654 25-559); experiment: SPR, antibody captured on Protein A chip, human GPC3-His analyte;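 note: measured at 25 °C flow cell, human GPC3-His injected at five concentrations up to 200 nM, 240 s association, up to 600 s dissociation, double-referenced, fitted to Langmuir 1:1 model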
T3 construct: also called human GPC3 protein; not shown: His tag

monkey GPC3-His protein [3] = biological target: T2, monkey GPC3-His protein; experiment: ELISA, monkey GPC3-His coated;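 note: Plate-coated antigen at 1 µg/mL, antibody binding 2 h at 37 °C, detected with HRP-labeled secondary antibody and TMB, absorbance at 450 nm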

B1: F1.136.7 (antibody, human IgG1, kappa, V domains shown)
VH: EVQLQQSGPVMVKPGPSVKISCQTSGFTFTDYYIHWVKQSHGKSLEWIGLVFPYDGGTNYNQKFKDKATLTLDTSSSTAYMELNSLTSEDSAVYYCARAGGFSYALNYWGQGTSVTVSS
VL: DIQMTQSPSSLSASLGGKVTITCKASQDINNYIAWYQHKPGKGPRLLIHFTSTLQPGIPSRFSGSGSGRDYSFSISNLEPEDIATYYCLQYDNLLLTFGAGTKLELKR
notes: Human-murine chimeric antibody
- EC50 [1]: 1.94 nM
- Max MFI [1]: 6480 MFI
- Kd (monkey GPC3-His protein [2]): 0.183 nM
- koff (monkey GPC3-His protein [2]): 2.88e-05 s⁻¹
- kon (monkey GPC3-His protein [2]): 158000 M⁻¹ s⁻¹
- Kd (human GPC3-His protein): 0.837 nM
- koff (human GPC3-His protein): 7.03e-05 s⁻¹
- kon (human GPC3-His protein): 84100 M⁻¹ s⁻¹
- OD450 at 0.0001 nM (monkey GPC3-His protein [3]): 0.05 OD450
- OD450 at 0.001 nM (monkey GPC3-His protein [3]): 0.05 OD450
- OD450 at 0.01 nM (monkey GPC3-His protein [3]): 0.1 OD450
- OD450 at 0.1 nM (monkey GPC3-His protein [3]): 0.62 OD450
- OD450 at 1 nM (monkey GPC3-His protein [3]): 1.33 OD450
- OD450 at 10 nM (monkey GPC3-His protein [3]): 1.96 OD450
- OD450 at 100 nM (monkey GPC3-His protein [3]): 1.96 OD450

B4: F1.145.22 (antibody, human IgG1, kappa, V domains shown)
VH: QVQLQQSGTDLARPGASVKLSCKASGYTFTSFGISWVKQRTGQGLEWIGEIYPRSGSPYYNEKFTGKATLTADKSSSTAYMELRSLTSEDSAVYFCAKDFGSSYVFDYWGQGTALTVSS
VL: DIQMTQSPASLSASVGETVTITCRASENIYSYLTWYQQKQGKSPQLLVYNAKTLAEGVPSRFSGSGSGTQFSLKINSLQPEDFGTYYCQHHYGTPPTFGTGTKLDLKR
notes: as for B1
- EC50 [1]: 0.69 nM
- Max MFI [1]: 6050 MFI
- Kd (monkey GPC3-His protein [2]): 0.525 nM
- koff (monkey GPC3-His protein [2]): 0.000164 s⁻¹
- kon (monkey GPC3-His protein [2]): 311000 M⁻¹ s⁻¹
- Kd (human GPC3-His protein): 0.754 nM
- koff (human GPC3-His protein): 0.000164 s⁻¹
- kon (human GPC3-His protein): 218000 M⁻¹ s⁻¹
- OD450 at 0.0001 nM (monkey GPC3-His protein [3]): 0.05 OD450
- OD450 at 0.001 nM (monkey GPC3-His protein [3]): 0.07 OD450
- OD450 at 0.01 nM (monkey GPC3-His protein [3]): 0.25 OD450
- OD450 at 0.1 nM (monkey GPC3-His protein [3]): 1.23 OD450
- OD450 at 1 nM (monkey GPC3-His protein [3]): 2.17 OD450
- OD450 at 10 nM (monkey GPC3-His protein [3]): 2.39 OD450
- OD450 at 100 nM (monkey GPC3-His protein [3]): 2.4 OD450

These reach a lower EC50 [1]. Values come first.

- EC50 [1]: 0.31 nM
- Max MFI [1]: 3530 MFI
- Kd (monkey GPC3-His protein [2]): 5.24 nM
- koff (monkey GPC3-His protein [2]): 0.000434 s⁻¹
- kon (monkey GPC3-His protein [2]): 82800 M⁻¹ s⁻¹
- Kd (human GPC3-His protein): 7.77 nM
- koff (human GPC3-His protein): 0.000443 s⁻¹
- kon (human GPC3-His protein): 57000 M⁻¹ s⁻¹
- OD450 at 0.0001 nM (monkey GPC3-His protein [3]): 0.05 OD450
- OD450 at 0.001 nM (monkey GPC3-His protein [3]): 0.1 OD450
- OD450 at 0.01 nM (monkey GPC3-His protein [3]): 0.49 OD450
- OD450 at 0.1 nM (monkey GPC3-His protein [3]): 1.76 OD450
- OD450 at 1 nM (monkey GPC3-His protein [3]): 2.3 OD450
- OD450 at 10 nM (monkey GPC3-His protein [3]): 2.54 OD450
- OD450 at 100 nM (monkey GPC3-His protein [3]): 2.23 OD450
B2: F2.55.11 (antibody, human IgG1, kappa, V domains shown)
VH: EVKLVESGGGLVKPGGSLKLSCAASGLTFSTCTMSWVRQTPAKRLEWVATISSGGGNTYYPDSVKGRFTISRDNARNTLYLQMSSLRSEDTAMYYCVRLYYDGSPYAMDYWGQGTSVTVSS
VL: DIQMTQTTSSLSASLGDRVTISCRASQDISNHLNWYQQKPDGTVKLLIYYTSRLHSGVPSRFSGSGSGTDYSLTISNLEQEDIATYFCQQDSKPPPTFGSGTKLEIKR
notes: as for B1

- EC50 [1]: 0.25 nM
- Max MFI [1]: 5540 MFI
- Kd (monkey GPC3-His protein [2]): 4.44 nM
- koff (monkey GPC3-His protein [2]): 0.000639 s⁻¹
- kon (monkey GPC3-His protein [2]): 144000 M⁻¹ s⁻¹
- Kd (human GPC3-His protein): 8.03 nM
- koff (human GPC3-His protein): 0.000629 s⁻¹
- kon (human GPC3-His protein): 78400 M⁻¹ s⁻¹
- OD450 at 0.0001 nM (monkey GPC3-His protein [3]): 0.07 OD450
- OD450 at 0.001 nM (monkey GPC3-His protein [3]): 0.07 OD450
- OD450 at 0.01 nM (monkey GPC3-His protein [3]): 0.26 OD450
- OD450 at 0.1 nM (monkey GPC3-His protein [3]): 1.11 OD450
- OD450 at 1 nM (monkey GPC3-His protein [3]): 1.91 OD450
- OD450 at 10 nM (monkey GPC3-His protein [3]): 2.21 OD450
- OD450 at 100 nM (monkey GPC3-His protein [3]): 2.14 OD450
B3: F1.120.16 (antibody, human IgG1, kappa, V domains shown)
VH: EFQLQQSGPELVKPGASVKISCKASGYSFTDYNMNWVKQSNGKSLEWIGLIHPKFSVTSYNRKFKGKATLTVDQSSSTAYMQLNSLTSEDSAVYYCARWAGDYFDYWGQGTTLTVSS
VL: DIVLTQSPATLSVTPGDSVSLSCRASQSISNNLHWYQQKSHESPRLLIKYASQSISGIPSRFSGSGSGTDFTLTINSVETEDFGMYFCQQSNSWPQTFGGGTKLEIKR
notes: as for B1

— patent US20260116991A1 (HAINAN SIMCERE ZAIMING PHARMACEUTICAL, published 2026)
